In patent US20250171562A1:

Target: mixture of three Der p 2 specific recombinant human IgE clones H10, H12, P4E (human) (UniProt P01854)
Test: RBL-SX38 IgE displacement, FACS

Chain of mixture of three Der p 2 specific recombinant human IgE clones H10, H12, P4E (human) (P01854 other isoform, or with tags, fused parts or gaps): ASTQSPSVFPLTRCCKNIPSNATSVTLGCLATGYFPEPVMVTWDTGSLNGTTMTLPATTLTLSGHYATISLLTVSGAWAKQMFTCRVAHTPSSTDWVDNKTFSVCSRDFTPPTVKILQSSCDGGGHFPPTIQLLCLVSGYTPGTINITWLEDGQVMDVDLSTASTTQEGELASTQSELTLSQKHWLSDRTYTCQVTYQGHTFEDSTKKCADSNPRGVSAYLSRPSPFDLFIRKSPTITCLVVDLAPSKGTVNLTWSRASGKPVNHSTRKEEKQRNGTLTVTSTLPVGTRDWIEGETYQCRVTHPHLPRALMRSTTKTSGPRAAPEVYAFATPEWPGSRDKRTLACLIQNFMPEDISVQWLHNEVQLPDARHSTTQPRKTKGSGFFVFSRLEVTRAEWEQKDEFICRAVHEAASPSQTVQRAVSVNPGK

Row | Binder | EC50 [nM] | Max effect/effect 1 µM [%]
1 | NIgG4B2A1(G4S)1 (Fc fusion) chain 1: QVQLVESGGGLVQAGGSLRLSCAVFGSTFSNNVADWYRQAPGKQRELVARISASGATREYGDSVKGRFTISRDDAKNTMYLQMNNLKPEDTAVYRCHKIEWEDLSRKDYWGQGTQVTVSGGGGSGPPCPPCPAPEFLGGPSVFLFPPKPKDTLMISRTPEVTCVVVDVSQEDPEVQFNWYVDGVEVHNAKTKPREEQFNSTYRVVSVLTVLHQDWLNGKEYKCKVSNKGLPSSIEKTISKAKGQPREPQVYTLPPCQEEMTKNQVSLWCLVKGFYPSDIAVEWESNGQPENNYKTTPPVLDSDGSFFLYSRLTVDKSRWQEGNVFSCSVMHEALHNHYTQKSLSLSLGK chain 2: EVQLLESGGGLVQPGGSLRLSCAASGFTFGNYDMAWVRQAPGKRPEWVSSIDTGGDITHYADSVKGRFTISRDNAKNTLYLQMNSLRPEDTAVYWCATDEEYALGPNEFDYYGQGTLVTVSSGGGGSGPPCPPCPAPEFLGGPSVFLFPPKPKDTLMISRTPEVTCVVVDVSQEDPEVQFNWYVDGVEVHNAKTKPREEQFNSTYRVVSVLTVLHQDWLNGKEYKCKVSNKGLPSSIEKTISKAKGQPREPQVCTLPPSQEEMTKNQVSLSCAVKGFYPSDIAVEWESNGQPENNYKTTPPVLDSDGSFFLVSRLTVDKSRWQEGNVFSCSVMHEALHNHYTQKSLSLSLGK | 0.3 | 97
2 | CIgG4B2A1(RS) (Fc fusion) chain 1: GPPCPPCPAPEFLGGPSVFLFPPKPKDTLMISRTPEVTCVVVDVSQEDPEVQFNWYVDGVEVHNAKTKPREEQFNSTYRVVSVLTVLHQDWLNGKEYKCKVSNKGLPSSIEKTISKAKGQPREPQVYTLPPCQEEMTKNQVSLWCLVKGFYPSDIAVEWESNGQPENNYKTTPPVLDSDGSFFLYSRLTVDKSRWQEGNVFSCSVMHEALHNHYTQKSLSLSLGKRSQVQLVESGGGLVQAGGSLRLSCAVFGSTFSNNVADWYRQAPGKQRELVARISASGATREYGDSVKGRFTISRDDAKNTMYLQMNNLKPEDTAVYRCHKIEWEDLSRKDYWGQGTQVTVS chain 2: GPPCPPCPAPEFLGGPSVFLFPPKPKDTLMISRTPEVTCVVVDVSQEDPEVQFNWYVDGVEVHNAKTKPREEQFNSTYRVVSVLTVLHQDWLNGKEYKCKVSNKGLPSSIEKTISKAKGQPREPQVCTLPPSQEEMTKNQVSLSCAVKGFYPSDIAVEWESNGQPENNYKTTPPVLDSDGSFFLVSRLTVDKSRWQEGNVFSCSVMHEALHNHYTQKSLSLSLGKRSEVQLLESGGGLVQPGGSLRLSCAASGFTFGNYDMAWVRQAPGKRPEWVSSIDTGGDITHYADSVKGRFTISRDNAKNTLYLQMNSLRPEDTAVYWCATDEEYALGPNEFDYYGQGTLVTVSS | 273 | 70
3 | NIgG4B2A1(RS) (Fc fusion) chain 1: QVQLVESGGGLVQAGGSLRLSCAVFGSTFSNNVADWYRQAPGKQRELVARISASGATREYGDSVKGRFTISRDDAKNTMYLQMNNLKPEDTAVYRCHKIEWEDLSRKDYWGQGTQVTVSRSGPPCPPCPAPEFLGGPSVFLFPPKPKDTLMISRTPEVTCVVVDVSQEDPEVQFNWYVDGVEVHNAKTKPREEQFNSTYRVVSVLTVLHQDWLNGKEYKCKVSNKGLPSSIEKTISKAKGQPREPQVYTLPPCQEEMTKNQVSLWCLVKGFYPSDIAVEWESNGQPENNYKTTPPVLDSDGSFFLYSRLTVDKSRWQEGNVFSCSVMHEALHNHYTQKSLSLSLGK chain 2: EVQLLESGGGLVQPGGSLRLSCAASGFTFGNYDMAWVRQAPGKRPEWVSSIDTGGDITHYADSVKGRFTISRDNAKNTLYLQMNSLRPEDTAVYWCATDEEYALGPNEFDYYGQGTLVTVSSRSGPPCPPCPAPEFLGGPSVFLFPPKPKDTLMISRTPEVTCVVVDVSQEDPEVQFNWYVDGVEVHNAKTKPREEQFNSTYRVVSVLTVLHQDWLNGKEYKCKVSNKGLPSSIEKTISKAKGQPREPQVCTLPPSQEEMTKNQVSLSCAVKGFYPSDIAVEWESNGQPENNYKTTPPVLDSDGSFFLVSRLTVDKSRWQEGNVFSCSVMHEALHNHYTQKSLSLSLGK | 0.4 | 99
4 | NIgG4B2A1(G4S)2 (Fc fusion) chain 1: QVQLVESGGGLVQAGGSLRLSCAVFGSTFSNNVADWYRQAPGKQRELVARISASGATREYGDSVKGRFTISRDDAKNTMYLQMNNLKPEDTAVYRCHKIEWEDLSRKDYWGQGTQVTVSGGGGSGGGGSGPPCPPCPAPEFLGGPSVFLFPPKPKDTLMISRTPEVTCVVVDVSQEDPEVQFNWYVDGVEVHNAKTKPREEQFNSTYRVVSVLTVLHQDWLNGKEYKCKVSNKGLPSSIEKTISKAKGQPREPQVYTLPPCQEEMTKNQVSLWCLVKGFYPSDIAVEWESNGQPENNYKTTPPVLDSDGSFFLYSRLTVDKSRWQEGNVFSCSVMHEALHNHYTQKSLSLSLGK chain 2: EVQLLESGGGLVQPGGSLRLSCAASGFTFGNYDMAWVRQAPGKRPEWVSSIDTGGDITHYADSVKGRFTISRDNAKNTLYLQMNSLRPEDTAVYWCATDEEYALGPNEFDYYGQGTLVTVSSGGGGSGGGGSGPPCPPCPAPEFLGGPSVFLFPPKPKDTLMISRTPEVTCVVVDVSQEDPEVQFNWYVDGVEVHNAKTKPREEQFNSTYRVVSVLTVLHQDWLNGKEYKCKVSNKGLPSSIEKTISKAKGQPREPQVCTLPPSQEEMTKNQVSLSCAVKGFYPSDIAVEWESNGQPENNYKTTPPVLDSDGSFFLVSRLTVDKSRWQEGNVFSCSVMHEALHNHYTQKSLSLSLGK | 0.3 | 98
5 | NIgG4B2A1(G4S)3 (Fc fusion) chain 1: QVQLVESGGGLVQAGGSLRLSCAVFGSTFSNNVADWYRQAPGKQRELVARISASGATREYGDSVKGRFTISRDDAKNTMYLQMNNLKPEDTAVYRCHKIEWEDLSRKDYWGQGTQVTVSGGGGSGGGGSGGGGSGPPCPPCPAPEFLGGPSVFLFPPKPKDTLMISRTPEVTCVVVDVSQEDPEVQFNWYVDGVEVHNAKTKPREEQFNSTYRVVSVLTVLHQDWLNGKEYKCKVSNKGLPSSIEKTISKAKGQPREPQVYTLPPCQEEMTKNQVSLWCLVKGFYPSDIAVEWESNGQPENNYKTTPPVLDSDGSFFLYSRLTVDKSRWQEGNVFSCSVMHEALHNHYTQKSLSLSLGK chain 2: EVQLLESGGGLVQPGGSLRLSCAASGFTFGNYDMAWVRQAPGKRPEWVSSIDTGGDITHYADSVKGRFTISRDNAKNTLYLQMNSLRPEDTAVYWCATDEEYALGPNEFDYYGQGTLVTVSSGGGGSGGGGSGGGGSGPPCPPCPAPEFLGGPSVFLFPPKPKDTLMISRTPEVTCVVVDVSQEDPEVQFNWYVDGVEVHNAKTKPREEQFNSTYRVVSVLTVLHQDWLNGKEYKCKVSNKGLPSSIEKTISKAKGQPREPQVCTLPPSQEEMTKNQVSLSCAVKGFYPSDIAVEWESNGQPENNYKTTPPVLDSDGSFFLVSRLTVDKSRWQEGNVFSCSVMHEALHNHYTQKSLSLSLGK | 0.5 | 98
6 | CIgG4B1A2(G4S)3 (Fc fusion) chain 1: GPPCPPCPAPEFLGGPSVFLFPPKPKDTLMISRTPEVTCVVVDVSQEDPEVQFNWYVDGVEVHNAKTKPREEQFNSTYRVVSVLTVLHQDWLNGKEYKCKVSNKGLPSSIEKTISKAKGQPREPQVYTLPPCQEEMTKNQVSLWCLVKGFYPSDIAVEWESNGQPENNYKTTPPVLDSDGSFFLYSRLTVDKSRWQEGNVFSCSVMHEALHNHYTQKSLSLSLGKGGGGSGGGGSGGGGSQVQLQESGGGLVQTGGSLRLSCAVHGRTFSNTGMGWFRQAPGNERQFVAIISPSGTSTYYADSVKGRFTISRDPAKNTVYLQMNSLKMDDTAVYYCAASYGSNWSTLRHQRRNEYDAWGQGTQVAVS chain 2: GPPCPPCPAPEFLGGPSVFLFPPKPKDTLMISRTPEVTCVVVDVSQEDPEVQFNWYVDGVEVHNAKTKPREEQFNSTYRVVSVLTVLHQDWLNGKEYKCKVSNKGLPSSIEKTISKAKGQPREPQVCTLPPSQEEMTKNQVSLSCAVKGFYPSDIAVEWESNGQPENNYKTTPPVLDSDGSFFLVSRLTVDKSRWQEGNVFSCSVMHEALHNHYTQKSLSLSLGKGGGGSGGGGSGGGGSEVQLLESGGGLVQPGGSLRLSCAASGFRFGNYDMAWVRQAPGKRYEWVSSIDTGGDITHYADSVKGRFTISRDNAKNTLYLQMNSLRPEDTAEYWCATDEEYALGPNEFDYYGQGTLVTVS | 5.3 | 100
